Assay results published in patent US6716960B2, “Mch3, a novel apoptotic protease, nucleic acids encoding and methods of use” (Idun Pharmaceuticals, Inc., priority 1995, dated 2004).
Like-named read-outs stand apart in the source and are kept apart here.

Key:
Mch3α = molecular target: T1, Mch3α (Homo sapiens, UniProt P55210); experiment: Continuous fluorometric assay of recombinant Mch3α with DEVD-AMC substrate; format: biochemical
T1 construct: This assay employs Mch3 polypeptide expressed in an active, processed form recombinantly in E. coli; becomes active following proteolytic cleavage into two subunits of approximately 17 kD (p17) and 12 kD (p12); GST (N, cleaved yes); made in house; host or cells: E. coli (DH5α), pGEX-2T; bacterial lysates
T1 sequence (P55210 24-198 limits assumed): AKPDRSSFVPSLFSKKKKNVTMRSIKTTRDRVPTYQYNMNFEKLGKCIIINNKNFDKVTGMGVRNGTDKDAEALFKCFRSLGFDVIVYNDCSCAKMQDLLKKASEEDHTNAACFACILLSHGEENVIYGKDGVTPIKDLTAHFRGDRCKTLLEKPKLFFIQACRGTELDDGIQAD
T1 sequence (P55210 207-303 limits assumed): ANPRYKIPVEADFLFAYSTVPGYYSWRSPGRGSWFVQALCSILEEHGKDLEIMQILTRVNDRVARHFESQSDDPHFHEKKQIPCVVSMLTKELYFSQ
Description: The kinetic properties of the bacterially expressed recombinant Mch3α and CPP32 were determined using the tetrapeptide substate DEVD-AMC in a continuous fluorometric assay. The DEVD-AMC substrate is the poly(ADP-ribose)polymerase (PARP) cleavage site P1-P4 tetrapeptide (Nicholson et al., Nature 376:37-43 (1995)). Briefly, activity of Mch3α and CPP32 was measured using bacterial lysates in ICE buffer (25 mM HEPES, 1 mM EDTA, 5 mM DTT, 0.10% CHAPS, 10% sucrose, pH 7.5) at room temperature (24-25° C.).

CPP32 [1] = molecular target: T2, CPP32 (Homo sapiens, UniProt P42574); experiment: Continuous fluorometric assay of recombinant CPP32 with DEVD-AMC substrate; format: biochemical; conditions: for Km: recombinant CPP32, bacterial lysate, ICE buffer pH 7.5, 24-25° C., substrate = label
T2 construct: CPP32 is cleaved at Asp28 and Asp175 to generate two polypeptides of molecular masses of 17 kDa (p17) and 12 kDa (p12); GST (N, cleaved yes); made in house; host or cells: E. coli; bacterial lysates
T2 sequence (P42574 29-175 limits assumed): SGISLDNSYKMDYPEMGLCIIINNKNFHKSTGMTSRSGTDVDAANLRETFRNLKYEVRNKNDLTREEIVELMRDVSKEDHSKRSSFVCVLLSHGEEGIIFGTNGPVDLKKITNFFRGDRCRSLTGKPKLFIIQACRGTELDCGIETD
T2 sequence (P42574 176-277 limits assumed): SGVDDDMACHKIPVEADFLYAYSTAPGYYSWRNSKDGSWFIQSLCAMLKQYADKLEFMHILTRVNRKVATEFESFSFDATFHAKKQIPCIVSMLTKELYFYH

CPP32 [2] = molecular target: T2, CPP32; conditions: purified human CPP32, reported by Nicholson et al.; cited from earlier work
Sf9 cells = experiment: Induction of apoptosis in Sf9 cells infected with recombinant baculoviruses; conditions: for Induction of apoptosis: expressed separately in Sf9 cells

Molecule: CC(=O)N[C@@H](CC(=O)O)C(=O)N[C@@H](CCC(=O)O)C(=O)N[C@H](C(=O)N[C@H](C=O)CC(=O)O)C(C)C [DEVDaldehyde, DEVD-CHO]
- Ki (Mch3α): 0.0018 µM

Molecule: YVADamc: YVAD tetrapeptide amc substrate listed in Table I
- Km (CPP32 [1]): > 500 µM

Molecule: DEVD-AMC [DEVDamc]
- Km (Mch3α; bacterial lysate, ICE buffer pH 7.5, 24-25° C., substrate = label): 51 µM
- Km (CPP32 [1]): 13 µM
- Km (CPP32 [2]): 9.7 ± 1 µM

Molecule: CC(=O)N[C@@H](Cc1ccc(O)cc1)C(=O)N[C@H](C(=O)N[C@@H](C)C(=O)N[C@H](C=O)CC(=O)O)C(C)C [YVADaldehyde, YVAD-CHO]
- Ki (Mch3α): > 10 µM
- Ki (CPP32 [1]): 8.5 µM

B1: truncated Mch3α (amino acids 1-198): truncated Mch3α that encodes only the p20 subunit (protein)
chain: MADDQGCIEEQGVEDSANEDSVDAKPDRSSFVPSLFSKKKKNVTMRSIKTTRDRVPTYQYNMNFEKLGKCIIINNKNFDKVTGMGVRNGTDKDAEALFKCFRSLGFDVIVYNDCSCAKMQDLLKKASEEDHTNAACFACILLSHGEENVIYGKDGVTPIKDLTAHFRGDRCKTLLEKPKLFFIQACRGTELDDGIQAD
- Induction of apoptosis (Sf9 cells): unable to induce apoptosis

B2: truncated Mch3α (amino acids 199-303): truncated Mch3α that encodes only the p12 subunit (protein)
chain: SGPINDTDANPRYKIPVEADFLFAYSTVPGYYSWRSPGRGSWFVQALCSILEEHGKDLEIMQILTRVNDRVARHFESQSDDPHFHEKKQIPCVVSMLTKELYFSQ
- Induction of apoptosis (Sf9 cells): unable to induce apoptosis

B3: Mch3α: full length apoptotic cysteine protease, 303 amino acids (SEQ ID NO: 2), expressed from recombinant baculovirus (protein)
chain: MADDQGCIEEQGVEDSANEDSVDAKPDRSSFVPSLFSKKKKNVTMRSIKTTRDRVPTYQYNMNFEKLGKCIIINNKNFDKVTGMGVRNGTDKDAEALFKCFRSLGFDVIVYNDCSCAKMQDLLKKASEEDHTNAACFACILLSHGEENVIYGKDGVTPIKDLTAHFRGDRCKTLLEKPKLFFIQACRGTELDDGIQADSGPINDTDANPRYKIPVEADFLFAYSTVPGYYSWRSPGRGSWFVQALCSILEEHGKDLEIMQILTRVNDRVARHFESQSDDPHFHEKKQIPCVVSMLTKELYFSQ
- Cells undergoing apoptosis (Sf9 cells; expression in Sf9 cells, 42-48 h postinfection): approximately 50%
